{"source": "paper PMC5589264", "about": "“Reversible unfolding of infectious prion assemblies reveals the existence of an oligomeric elementary brick” (PLoS Pathogens, 2017)", "target": "the molecule itself", "experiment": "SEC", "data": [{"protein": "prion protein (PrP) from 263K-infected Syrian hamster brain (natural protein, also called PrP^Sc; 263K PrP^Sc) not shown", "values": [{"measurement": "stoichiometry N", "value": "~3"}]}]}
